# Patent US20190336574A1 (TRUSTEES OF PRINCETON UNIVERSITY, published 2019)
# T1: HA-SND1 Δ39-43, full-length human (human, UniProt Q7KZF4 1-910)
# T1 construct: also called 439-43
# T1 sequence: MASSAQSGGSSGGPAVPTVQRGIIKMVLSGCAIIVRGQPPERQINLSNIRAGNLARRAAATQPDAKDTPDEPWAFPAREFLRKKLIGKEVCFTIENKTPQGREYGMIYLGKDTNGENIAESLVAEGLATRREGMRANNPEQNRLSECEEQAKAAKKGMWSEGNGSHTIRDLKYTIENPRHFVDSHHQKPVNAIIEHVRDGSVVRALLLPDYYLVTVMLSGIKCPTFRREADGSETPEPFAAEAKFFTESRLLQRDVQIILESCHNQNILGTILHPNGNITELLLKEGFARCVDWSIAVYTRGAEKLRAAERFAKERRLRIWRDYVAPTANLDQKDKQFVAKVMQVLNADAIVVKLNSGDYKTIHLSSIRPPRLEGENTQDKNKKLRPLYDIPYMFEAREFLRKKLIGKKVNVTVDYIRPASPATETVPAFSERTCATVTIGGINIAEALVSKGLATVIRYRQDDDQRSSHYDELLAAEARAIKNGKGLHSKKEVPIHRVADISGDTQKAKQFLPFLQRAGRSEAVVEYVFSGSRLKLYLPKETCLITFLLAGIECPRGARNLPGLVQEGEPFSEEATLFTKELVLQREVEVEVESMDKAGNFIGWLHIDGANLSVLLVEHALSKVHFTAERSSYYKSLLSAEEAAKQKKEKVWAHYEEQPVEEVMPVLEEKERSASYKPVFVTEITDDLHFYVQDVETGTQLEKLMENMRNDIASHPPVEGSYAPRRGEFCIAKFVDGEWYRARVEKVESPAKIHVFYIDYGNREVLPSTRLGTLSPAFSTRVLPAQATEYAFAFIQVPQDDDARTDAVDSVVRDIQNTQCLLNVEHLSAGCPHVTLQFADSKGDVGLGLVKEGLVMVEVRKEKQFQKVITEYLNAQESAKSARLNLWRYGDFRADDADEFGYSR
# T2: HA-SND1 F250A, full-length human (human, UniProt Q7KZF4 1-910)
# T2 construct: Full-length, HA-tagged
# T2 sequence: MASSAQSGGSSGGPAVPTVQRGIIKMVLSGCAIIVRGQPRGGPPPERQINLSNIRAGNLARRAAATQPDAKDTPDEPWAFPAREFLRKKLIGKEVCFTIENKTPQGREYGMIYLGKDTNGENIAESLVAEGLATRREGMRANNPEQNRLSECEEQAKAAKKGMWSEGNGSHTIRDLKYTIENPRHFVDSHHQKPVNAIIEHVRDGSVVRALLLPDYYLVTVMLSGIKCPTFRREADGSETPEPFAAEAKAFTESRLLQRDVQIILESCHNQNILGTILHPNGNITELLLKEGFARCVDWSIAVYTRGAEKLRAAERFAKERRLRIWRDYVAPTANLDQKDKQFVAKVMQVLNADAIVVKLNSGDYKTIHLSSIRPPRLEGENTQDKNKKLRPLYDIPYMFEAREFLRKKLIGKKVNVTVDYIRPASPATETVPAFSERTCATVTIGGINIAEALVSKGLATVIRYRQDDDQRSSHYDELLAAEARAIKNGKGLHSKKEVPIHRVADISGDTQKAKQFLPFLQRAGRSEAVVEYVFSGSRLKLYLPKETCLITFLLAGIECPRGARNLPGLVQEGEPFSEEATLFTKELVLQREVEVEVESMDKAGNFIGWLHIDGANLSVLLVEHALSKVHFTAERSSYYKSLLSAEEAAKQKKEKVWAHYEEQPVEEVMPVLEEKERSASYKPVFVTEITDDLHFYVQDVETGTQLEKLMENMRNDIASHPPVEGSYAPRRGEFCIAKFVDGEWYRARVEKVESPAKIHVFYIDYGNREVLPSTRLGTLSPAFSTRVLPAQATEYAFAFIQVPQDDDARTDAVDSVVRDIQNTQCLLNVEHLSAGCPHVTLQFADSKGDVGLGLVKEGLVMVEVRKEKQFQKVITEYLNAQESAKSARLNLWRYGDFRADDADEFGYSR
# How the values were obtained:
# [1] = biological target: T1, HA-SND1 Δ39-43, full-length human; assay: co-IP (anti-Myc) from HEK293T lysates, western blot
# [2] = biological target: T2, HA-SND1 F250A, full-length human; assay: as above
# [3] = biological target: human AGO2 (ectopically expressed in HEK293T cells) (human, UniProt Q9UKV8 1-859); assay: anti-Myc co-IP from HEK293T lysate (HA-SND1 and FLAG-AGO2 co-expressed), western blot
# Chain of human AGO2 (ectopically expressed in HEK293T cells) (Q9UKV8 whole entry, the tested form may be a part): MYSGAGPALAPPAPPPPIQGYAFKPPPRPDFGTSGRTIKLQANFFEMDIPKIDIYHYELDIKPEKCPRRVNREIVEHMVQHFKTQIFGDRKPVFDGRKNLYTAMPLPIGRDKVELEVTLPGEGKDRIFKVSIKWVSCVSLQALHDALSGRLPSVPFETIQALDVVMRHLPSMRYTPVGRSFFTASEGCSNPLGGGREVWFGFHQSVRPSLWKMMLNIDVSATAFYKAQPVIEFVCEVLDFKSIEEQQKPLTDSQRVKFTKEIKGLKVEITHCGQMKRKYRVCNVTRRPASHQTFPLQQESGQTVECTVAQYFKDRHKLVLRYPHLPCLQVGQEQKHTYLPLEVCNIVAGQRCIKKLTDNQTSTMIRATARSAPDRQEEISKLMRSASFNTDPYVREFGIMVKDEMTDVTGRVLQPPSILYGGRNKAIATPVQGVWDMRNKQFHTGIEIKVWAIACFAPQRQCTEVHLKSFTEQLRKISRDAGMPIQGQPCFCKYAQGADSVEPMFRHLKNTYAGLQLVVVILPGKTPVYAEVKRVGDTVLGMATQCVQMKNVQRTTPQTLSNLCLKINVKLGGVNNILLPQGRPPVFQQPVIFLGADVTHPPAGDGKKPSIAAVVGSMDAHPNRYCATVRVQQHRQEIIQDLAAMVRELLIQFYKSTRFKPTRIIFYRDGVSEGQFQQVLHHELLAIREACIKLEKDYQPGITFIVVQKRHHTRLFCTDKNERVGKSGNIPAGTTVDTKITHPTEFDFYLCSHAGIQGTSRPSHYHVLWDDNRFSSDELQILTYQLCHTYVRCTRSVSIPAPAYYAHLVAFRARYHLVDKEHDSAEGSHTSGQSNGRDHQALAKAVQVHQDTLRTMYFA
# From the text: Two putative nuclear localization signals are residues 432-451 for NLS2 and residues 561-580 for NLS3. […] (FIG. 7B) Pulldown of His6-SND1ΔC by GST-tagged MTDH fragments with indicated boundaries. The bound proteins were examined by SDS-PAGE and visualized by Coomassie blue staining. […] For (FIG. 7B) and (FIG. 7C), 1/10 of the His6-SND1ΔC input was shown, and GST alone was used as a negative control. Representative results of 3 independent experiments are shown. (FIG. 7D, FIG. 7E) Lysates from HEK293T cells expressing the indicated ectopic human SND1, AGO2 or MTDH were immunoprecipitated with anti-Myc and immunoblotted with the indicated antibodies.
# Immunoprecipitation and western blot For immunoprecipitation (IP) experiments, cultured cells were washed in cold PBS and lysed in lysis buffer (20 mM Tris pH 7.4, 0.15 M NaCl, 1 mM EDTA, 1 mM EGTA, 1% Tx-100, 0.0025 M Na2P2O7, 1 mM α-glycerolphosphate, 1 mM Na3VO4, and 1 mM NaF) with an EDTA-free protease inhibitor mixture (Roche Applied Science) and PMSF. Cell lysates were then incubated on ice for 10 min, centrifuged, and precleared by incubating with protein A/G beads (Santa Cruz Biotechnology) for 1 h at 4° C. For IP bead preparation, 30 μl of protein A/G beads were incubated with 5 μg of antibodies for 2 h at 4° C. […]
binder,measurement,setting,value
"Myc-MTDH, full-length human, wild type (other, Full-length, Myc-tagged; Expressed in HEK293T cells, tested in lysate; also called Myc-tagged MTDH; WT Myc-MTDH) MAARSWQDELAQQAEEGSARLREMLSVGLGFLRTELGLDLGLEPKRYPGWVILVGTGALGLLLLFLLGYGWAAACAGSRKKRRSPPRKREEAAAVPAAAPDDLALLKNLRSEEQKKKNRKKLSEKPKPNGRTVEVAEGEAVRTPQSVTAKQPPEIDKKNEKSKKNKKKSKSDAKAVQNSSRHDGKEVDEGAWETKISHREKRQQRKRDKVLTDSGSLDSTIPGIENTITVTTEQLTTASFPVGSKKNKGDSHLNVQVSNFKSGKGDSTLQVSSGLNENLTVNGGGWNEKSVKLSSQISAGEEKWNSVSPASAGKRKAEPSAWSQDTGDANTNGKDWGRSWSDRSIFSGIGSTAEPVSQSTTSDYQWDVSRNQPYIDDEWSGLNGLSSADPNSDWNAPAEEWGNWVDEERASLLKSQEPIPDDQKVSDDDKEKGEGALPTGKSKKKKKKKKKQGEDNSTAQDTEELEKEIREDLPVNTSKTRPKQEKAFSLKTISTSDPAEVLVKNSQPIKTLPPATSTEPSVILSKSDSDKSSSQVPPILQETDKSKSNTKQNSVPPSQTKSETSWESPKQIKKKKKARRET",binding result,[1],no binding
same,binding result,[2],no binding
same,binding result,[3],binds
